From PMC10033409, “Autoregulation of GPCR signalling through the third intracellular loop” (Nature, 2023) come the findings set out here.

The target of the experiment is T1, β2 adrenergic receptor (β2AR), wild type, receptor part of the β2AR–G peptide SPASM FRET sensor (human, UniProt P07550).
T1 construct: β2 adrenergic receptor (β2AR), human; One polypeptide: Receptor-4×GSG-mCitrine-4×GSG-10 nm ER/K linker-4×GSG-mCerulean-4×GSG-G peptide; the receptor and the G peptide (m5 or m6) are tethered on the same chain; also called WT; wild-type β2AR–Gs peptide sensor; source: HEK 293T Flp-In T-Rex cells, transfected, crude membrane extracts; not shown: mCitrine, C-terminal, kept
The experiment is described as follows: FRET or BRET; ∆FRET assay of β2AR SPASM sensors in membrane extracts; purified Nb6B9 added to quench the agonist-induced change in FRET. Particulars: one partner purified. (In general: BRET reads energy transfer from a luciferase to a nearby fluorophore.)

B1: Nanobody Nb6B9 (Nb6B9-2×GSG-SNAP tag-Flag-2×GSG-6×His) (VHH)
VHH: QVQLQESGGGLVQAGGSLRLSCAASGSIFALNIMGWYRQAPGKQRELVAAIHSGGTTNYANSVKGRFTISRDNAANTVYLQMNSLKPEDTAVYYCNVKDFGAIIYDYDYWGQGTQVTVSS
notes: Cloned into a pBiex1 backbone; source: E. coli JM109, purified (Ni-NTA, Superdex 200 gel filtration)
Consider B1, for which the binding result is given as “binds”.
